The text below walks through data of US20210087288A1 (Genentech, published 2021).

Positions count from the first letter of the chain named. Names and notes keep the numbering of the source. Values joined by “and” are separate entries in the source; they are usually repeats but may differ in a detail not shown here. Equal values may be shown once.

For assay [1], the target named is T1, Human TfR extracellular domain (ecd) containing an N-terminal His tag (human, UniProt P02786 89-760).
T1 construct: Biotinylated in some ELISAs; also called huTfR; HuTfR
Kind of assay: SPR (Biacore), IgG, TfR captured by anti-His. The protocol:
(§1) Antibody affinities were measured using surface plasmon resonance (“SPR”) (Biacore™ GE Healthcare). Anti-His antibody (Qiagen) was coupled onto four different flow cells of a BIACORE™ CM5 sensor chip (Biacore, Inc., Piscataway, N.J.) at between 6000 and 8000 RU. Immobilization was achieved by random coupling through amino groups using a protocol provided by the manufacturer. 10×HBS-P (Biacore, Inc., Piscataway, N.J.) was diluted in water and served as the dilution and running buffer. Purified human or cyno TfR was captured, followed by a 3-fold dilution series of IgG or Fab that was injected at a flow rate of […] using the single cycle kinetics method. Affinity constants were determined using a simple 1:1 Langmuir binding model or using a steady state model when kₒₙ or koff was beyond the detection limit. The equilibrium dissociation constant (KD) was calculated as the ratio of […].
(§2) The affinity of humanized variants for human and cyno TfR was determined by SPR as IgG (FIG. 4E). Selected clones were also analyzed by SPR as Fab to assess monovalent affinity (Table 7). In both cases, the SPR experiments were performed as described above.
For orientation: In SPR one partner is held on a chip, and binding of the other changes the refractive index at the surface.

Assay [2] has as its target T2, Cyno TfR extracellular domain (analogous ecd construct) (cynomolgus monkey, UniProt Q5RDH6 87-760 (Pongo abelii entry)).
T2 construct: it is not expressly said to be the cyno construct; also called purified cyno TfR
T2 chain: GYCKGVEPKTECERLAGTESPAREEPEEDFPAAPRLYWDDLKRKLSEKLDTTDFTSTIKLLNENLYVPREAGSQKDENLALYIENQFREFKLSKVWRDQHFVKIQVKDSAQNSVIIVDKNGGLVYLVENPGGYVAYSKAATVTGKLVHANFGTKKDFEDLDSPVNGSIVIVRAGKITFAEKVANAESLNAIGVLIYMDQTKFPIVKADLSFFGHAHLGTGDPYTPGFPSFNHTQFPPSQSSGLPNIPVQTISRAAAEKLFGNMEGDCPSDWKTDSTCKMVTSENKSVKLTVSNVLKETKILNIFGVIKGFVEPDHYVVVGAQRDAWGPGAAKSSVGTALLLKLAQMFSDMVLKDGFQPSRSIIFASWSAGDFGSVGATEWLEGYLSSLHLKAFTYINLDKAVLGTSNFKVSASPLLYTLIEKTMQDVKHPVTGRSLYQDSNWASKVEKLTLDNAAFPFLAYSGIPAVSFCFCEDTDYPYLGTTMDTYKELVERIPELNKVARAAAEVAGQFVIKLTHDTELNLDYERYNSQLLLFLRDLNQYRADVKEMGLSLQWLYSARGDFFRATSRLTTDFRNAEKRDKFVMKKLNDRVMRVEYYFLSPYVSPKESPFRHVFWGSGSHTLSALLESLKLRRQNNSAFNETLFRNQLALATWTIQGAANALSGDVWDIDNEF
Kind of assay: SPR (Biacore), IgG, TfR captured by anti-His. The procedure:
as §1, §2

Assay [3] deals with T1, Human TfR extracellular domain (ecd) …. Kind of assay: SPR, captured His-TfR, Fab analyte. The procedure: as §1, §2
Assay [4] deals with T2, Cyno TfR extracellular domain …. Briefly: SPR, captured His-TfR, Fab analyte. The protocol:
as §1, §2

Assay [5] shares this target. Kind of assay: ratio of KD on cyno TfR to KD on human TfR, SPR. The protocol: as §1, §2

B1: hu16F6.v2 (antibody, V domains shown)
VH: EVQLVESGPGLVKPSETLSLTCTVSGNSITSEYAWNWIRQPPGKGLEWIGYISYSGTTSYNPSLKSRVTISRDTSKNQLSLKLSSVTAADTAVYYCARYGYGNPATRYFDVWGQGTLVTVSS
VL: DIQMTQSPSSLSASVGDRVTITCRASKSISKYLAWYQQKPGKAPKLLLYSGSTLQSGVPSRFSGSGSGTDYTLTISSLQPEDFATYYCQQHNEYPWTFGQGTKVEIK
For the molecule B1, the Kd in assay [1] came out at 4.25 nM; in assay [2] it was 68.1 nM.

B2: hu7A4.v5 (antibody, V domains shown)
VH: EVQLVQSGAEVKKPGASVKVSCKASGYTFTDYAMHWVRQAPGQGLEWMGGISTYFGRTNYNQKFKGRVTMTRDTSISTAYMELSRLRSDDTAVYYCARGLSGNYVMDYWGQGTTVTVSS
VL: DIVMTQSPDSLAVSLGERATINCRASESVDSYGNSFMHWYQQKPGQPPKLLIYRASNLESGIPDRFSGSGSGTDFTLTISSLQAEDVAVYYCQQSNEGPPTFGQGTKLEIK
B2: in assay [2], the Kd was determined as 1.2 nM.

B3: hu7A4.v8 (antibody, V domains shown)
VH: B2 VH with A24G, R72V
VL: B2 VL
As to B3, in assay [2], the Kd was found to be 12.3 nM. This Kd is about 10-fold higher than that of the molecule before.

B4: Hu15G11.HC32A Fab (Fab, V domains shown)
VH: EVQLVQSGAEVKKPGASVKVSCKASGYTFTSAWMHWVRQAPGQRLEWIGEINPTNGRTNYIEKFKSRATLTVDKSASTAYMELSSLRSEDTAVYYCARGTRAYHYWGQGTMVTVSS
VL: DIQMTQSPSSLSASVGDRVTITCRASDNLYSNLAWYQQKPGKSPKLLVYDATNLADGVPSRFSGSGSGTDYTLTISSLQPEDFATYYCQHFWGTPLTFGQGTKVEIK
notes: Purified Fab; also called Y32A Fab
Turning to B4, in assay [3], the koff stood at 0.00178 s⁻¹ and the kon worked out at 238000 M⁻¹ s⁻¹. In assay [4], this molecule had a koff of 0.00851 s⁻¹ and a kon of 177000 M⁻¹ s⁻¹. Moreover, the Cy/hu ratio in assay [5] came out at 6.4.

B5: Hu15G11.HC52A Fab (Fab, V domains shown)
VH: B4 VH with A32Y, N52A
VL: B4 VL
notes: Purified Fab; also called N52A Fab
On to B5, for which, in assay [3], the koff is 0.0236 s⁻¹ and 0.0196 s⁻¹; the kon was 530000 M⁻¹ s⁻¹ and 564000 M⁻¹ s⁻¹. In assay [4], this molecule had a koff of 0.0567 s⁻¹ and an association rate constant (kon) of 487000 M⁻¹ s⁻¹. Also, the Cy/hu ratio in assay [5] was 2.6.

For orientation: Kd means a measure of binding affinity in units of concentration. What is called koff is a measure of how fast the partners let go of each other. Lower therefore signals slow dissociation. For orientation: kon means the rate constant with which the complex forms. Read a high kon as fast association.
